Assay results reported in US20240034783A1 (SOTIO BIOTECH A S, published 2024).

Assays:
human CLDN18.2 [1] = target: T1, human CLDN18.2 (human); experiment: flow cytometry; % positive tumor cells divided by % positive healthy stomach cells
T1 construct: also called huCLDN18.2; hCLDN18.2
Procedure: (§1) Two Balb/c mice were implanted subcutaneously with 1×10⁶ A549 cells expressing CLDN18.2 in 100 μl of 50% Matrigel and tumors growth was monitored over a few weeks until the tumor reached the desired size between 150-450 mm 3. Healthy stomach tissue and tumor tissue was collected for FC analysis. The collected tissues were cut into small pieces and digested with the Miltenyi tumor dissociation kit (MACS Miltenyi Biotec, Germany). Tissue pieces were incubated with dissociation buffer (prepared according to the manufacturer instruction) in 6 well plates for 30 min in 37° C. under permanent gentle rocking motion. Samples were resuspended and strained through a 70 μm cell strainer (Corning, USA) followed by a wash with 20 ml FC buffer (PBS+2% FBS). Cell suspensions were centrifuged (5 min at 400 g for 4° C.) and the supernatants were discarded. If needed, cell suspensions were passed through a strainer and centrifuged repeatedly and pellets resuspended in 5 ml of red blood cell lysis buffer (Biolegend, USA), incubated on ice for 4 min. After incubation, 25 ml of PBS was added, and the suspensions were centrifuged again (5 min at 400 g for 4° C.). Pellets were resuspended in FC buffer (0.5-3 ml based on pellets). Equal number of cells were transferred into 96 well plates and further processed for FC analysis. The cells in the plates were washed with PBS and centrifuged (400 g for 2 min at 4° C.). […] After incubation, cells were washed twice in PBS and centrifuged (400 g for 2 min at 4° C.). Pellets were resuspended in 50 μl/well of secondary staining mix (PBS+PE-labelled anti-human antibody) (Thermo Fisher Scientific, USA), and incubated 25 min on ice. After incubation cells were washed again twice in PBS. Pellets were resuspended in 100 μl of PBS containing DAPI. Plates were kept on ice until FC analysis. For FC analysis, live cells were separated from dead cells by forward scatter and DAPI stain. Live cells were then gated for the presence of cytokeratin ([…]) and bound CLDN18.2 antibodies (PE positive cells).

human CLDN18.2 [2] = target: T1, human CLDN18.2; experiment: flow cytometry, live cells from mouse tumor of A549 cells expressing CLDN18.2, antibody 4 µg/ml
Procedure: as §1

human CLDN18.2 [3] = target: T1, human CLDN18.2; experiment: flow cytometry titration, HEK293T cells overexpressing CLDN18.2
Procedure: (§2) In order to have a more homogenous cell population, the cells were sorted by FACS to select only cells with a the higher CLDN18.2 expression. […] After wash in FACS buffer, the cells were incubated with the PE-labeled Fey specific IgG goat anti-human secondary antibody (eBioscience) on ice for 30 min. After wash, the stained cells were resuspended in FACS buffer, analyzed and sorted by a FACSAria™ instrument, separating medium expressing cells from high expressing cells (FIG. 2B). […] HEK293T cells overexpressing CLDN18.2 or CLDN18.1 were generated as described in Example 3 and the expression of CLDN18.2 was analyzed by flow cytometry (FIG. 3).
(§3) A PE-coupled secondary anti-human IgG antibody was added to the cells for additional 30 min at 4° C. after washes with the FC buffer, followed by further washes with FC buffer. The cells were then resuspended in 100 μl FC buffer and measured with a FACSCalibur™ cell analyzer (BD Biosciences, USA).

human CLDN18.2 [4] = target: T1, human CLDN18.2; experiment: flow cytometry titration, PA-TU-8988S-High cells
Procedure: as §2, §3

B1: hCl1a (antibody, human IgG1, kappa, V domains shown)
VH: QVQLVQSGAEVKKPGASVKVSCKASGYTFTDYAMHWVRQAPGQRLEWMGWINTYTGKPTYAQKFQGRVTITRDTSASTAYMELSSLRSEDTAVYYCARAVFYGYTMDAWGQGTLVTVSS
VL: DIQMTQSPSSLSASVGDRVTITCRASEDIYSNLAWYQQKPGKAPKLLIFSVKRLQDGVPSRFSGSGSGTDFTLTISSLQPEDFATYYCLQGSNFPLTFGQGTKVEIKR
notes: Humanized
Human CLDN18.2 [1]
  Ratio tumor/stomach (Average): 34.7
  Ratio tumor/stomach (Mouse 1): 28.3
  Ratio tumor/stomach (Mouse 2): 60
Human CLDN18.2 [2]
  % of positive tumor cells (Average): 26%
  % of positive tumor cells (Mouse 1): 34%
  % of positive tumor cells (Mouse 2): 18%
Human CLDN18.2 [3]
  EC50: 0.598 µg/mL
  Max MFI: 1880 MFI
Human CLDN18.2 [4]
  EC50: 2.43 µg/mL
  Max MFI: 1650 MFI

B2: hCl1c (antibody, human IgG1, kappa, V domains shown)
VH: QVQLVQSGAEVKKPGASVKVSCKASGYTFTDYAMHWVRQAPGQRLEWMGWINTYTGKPTYSQKFQGRVTITRDTSASTAYMELSSLRSEDTAVYYCARAVFYGYTMDAWGQGTLVTVSS
VL: DIQMTQSPSSLSASVGDRVTITCRTSEDIYSNLAWYQQKPGKAPKLLIFAIKRLQDGVPSRFSGSGSGTDFTLTISSLQPEDFATYYCLQGSKFPLTFGQGTKVEIKR
notes: Humanized
Human CLDN18.2 [1]
  Ratio tumor/stomach (Average): 74
  Ratio tumor/stomach (Mouse 1): 290
  Ratio tumor/stomach (Mouse 2): 20
Human CLDN18.2 [2]
  % of positive tumor cells (Average): 18.5%
  % of positive tumor cells (Mouse 1): 29%
  % of positive tumor cells (Mouse 2): 8%
Human CLDN18.2 [3]
  EC50: 0.753 µg/mL
  Max MFI: 1230 MFI
Human CLDN18.2 [4]
  EC50: 1.47 µg/mL
  Max MFI: 1050 MFI

B3: hCl1g (antibody, human IgG1, kappa, V domains shown)
VH: QVQLVQSGAEVKKPGASVKVSCKASGYTFTDYAMHWVRQAPGQRLEWMGWINAYTGKPTYAQKFQGRVTITRDTSASTAYMELSSLRSEDTAVYYCARAVFYGYTMDAWGQGTLVTVSS
VL: DIQMTQSPSSLSASVGDRVTITCRTSEDIYSNFAWYQQKPGKAPKLLIYSVNRLQDGVPSRFSGSGSGTDFTLTISSLQPEDFATYYCLQGSKFPLTFGQGTKVEIKR
notes: Humanized
Human CLDN18.2 [3]
  EC50: 0.678 µg/mL
  Max MFI: 1440 MFI
Human CLDN18.2 [4]
  EC50: 1.77 µg/mL
  Max MFI: 1250 MFI

B4: hCl1i (antibody, human IgG1, kappa, V domains shown)
VH: QVQLVQSGAEVKKPGASVKVSCKASGYTFTDYAMYWVRQAPGQRLEWMGWINAYTGKPTYAQKFQGRVTITRDTSASTAYMELSSLRSEDTAVYYCARAVYYGYTMDAWGQGTLVTVSS
VL: DIQMTQSPSSLSASVGDRVTITCRASEDIYSNLAWYQQKPGKAPKLLIFSVKRLQDGVPSRFSGSGSGTDFTLTISSLQPEDFATYYCLQGSNFPLTFGQGTKVEIKR
notes: Humanized
Human CLDN18.2 [3]
  EC50: 0.444 µg/mL
  Max MFI: 2180 MFI
Human CLDN18.2 [4]
  EC50: 1.23 µg/mL
  Max MFI: 2090 MFI

B5: hCl1f (antibody, human IgG1, kappa, V domains shown)
VH: QVQLVQSGAEVKKPGASVKVSCKASGYTFTDYAMHWVRQAPGQRLEWMGWINAYTGKPTYAQKFQGRVTITRDTSASTAYMELSSLRSEDTAVYYCARAVFYGYTMDAWGQGTLVTVSS
VL: DIQMTQSPSSLSASVGDRVTITCRASEDIYSNLAWYQQKPGKAPKLLIYSVKRLQDGVPSRFSGSGSGTDFTLTISSLQPEDFATYYCLQGSNFPLTFGQGTKVEIKR
notes: Humanized
Human CLDN18.2 [1]
  Ratio tumor/stomach (Average): 329
  Ratio tumor/stomach (Mouse 1): 800
  Ratio tumor/stomach (Mouse 2): 140
Human CLDN18.2 [2]
  % of positive tumor cells (Average): 23%
  % of positive tumor cells (Mouse 1): 32%
  % of positive tumor cells (Mouse 2): 14%
Human CLDN18.2 [3]
  EC50: 0.795 µg/mL
  Max MFI: 1720 MFI
Human CLDN18.2 [4]
  EC50: 2.14 µg/mL
  Max MFI: 1600 MFI

B6: hCl1h (antibody, human IgG1, kappa, V domains shown)
VH: QVQLVQSGAEVKKPGASVKVSCKASGYTFTDYAMYWVRQAPGQRLEWMGWINAYTGKPTYAQKFQGRVTITRDTSASTAYMELSSLRSEDTAVYYCARAVYYGYTMDAWGQGTLVTVSS
VL: DIQMTQSPSSLSASVGDRVTITCRASEDIYSNLAWYQQKPGKAPKLLIYSVKRLQDGVPSRFSGSGSGTDFTLTISSLQPEDFATYYCLQGSNFPLTFGQGTKVEIKR
notes: Humanized
Human CLDN18.2 [3]
  EC50: 0.432 µg/mL
  Max MFI: 2080 MFI
Human CLDN18.2 [4]
  EC50: 1.75 µg/mL
  Max MFI: 1950 MFI

B7: hCl1j (antibody, human IgG1, kappa, V domains shown)
VH: QVQLVQSGAEVKKPGASVKVSCKASGYTFTDYAMYWVRQAPGQRLEWMGWINAYTGKPTYAQKFQGRVTITRDTSASTAYMELSSLRSEDTAVYYCARAVYYGYTMDAWGQGTLVTVSS
VL: DIQMTQSPSSLSASVGDRVTITCRTSEDIYSNLAWYQQKPGKAPKLLIFAIKRLQDGVPSRFSGSGSGTDFTLTISSLQPEDFATYYCLQGSKFPLTFGQGTKVEIKR
notes: Humanized
Human CLDN18.2 [3]
  EC50: 0.408 µg/mL
  Max MFI: 1850 MFI
Human CLDN18.2 [4]
  EC50: 1.16 µg/mL
  Max MFI: 1700 MFI

B8: hCl1d (antibody, human IgG1, kappa, V domains shown)
VH: QVQLVQSGAEVKKPGASVKVSCKASGYTFTDYAMHWVRQAPGQRLEWMGWINTYTGKPTYSQKFQGRVTITRDTSASTAYMELSSLRSEDTAVYYCARAVFYGYTMDAWGQGTLVTVSS
VL: DIQMTQSPSSLSASVGDRVTITCRTSEDIYSNFAWYQQKPGKAPKLLIYSVNRLQDGVPSRFSGSGSGTDFTLTISSLQPEDFATYYCLQGSKFPLTFGQGTKVEIKR
notes: Humanized
Human CLDN18.2 [3]
  EC50: 0.541 µg/mL
  Max MFI: 1640 MFI
Human CLDN18.2 [4]
  EC50: 1.93 µg/mL
  Max MFI: 1530 MFI

B9: hCl1e (antibody, human IgG1, kappa, V domains shown)
VH: QVQLVQSGAEVKKPGASVKVSCKASGYTFTDYAMYWVRQAPGQRLEWMGWINTYTGKPTYAQKFQGRVTITRDTSASTAYMELSSLRSEDTAVYYCARAVFYGYTMDAWGQGTLVTVSS
VL: DIQMTQSPSSLSASVGDRVTITCRASEDIYSNLAWYQQKPGKAPKLLIFSVKRLQDGVPSRFSGSGSGTDFTLTISSLQPEDFATYYCLQGSNFPLTFGQGTKVEIKR
notes: Humanized
Human CLDN18.2 [3]
  EC50: 0.558 µg/mL
  Max MFI: 1940 MFI
Human CLDN18.2 [4]
  EC50: 2.24 µg/mL
  Max MFI: 1860 MFI

B10: hCl1b (antibody, human IgG1, kappa, V domains shown)
VH: QVQLVQSGAEVKKPGASVKVSCKASGYTFTDYAMHWVRQAPGQRLEWMGWINTYTGKPTYSQKFQGRVTITRDTSASTAYMELSSLRSEDTAVYYCARAVFYGYTMDAWGQGTLVTVSS
VL: DIQMTQSPSSLSASVGDRVTITCRASEDIYSNLAWYQQKPGKAPKLLIFSVKRLQDGVPSRFSGSGSGTDFTLTISSLQPEDFATYYCLQGSNFPLTFGQGTKVEIKR
notes: Humanized
Human CLDN18.2 [1]
  Ratio tumor/stomach (Average): 53.1
  Ratio tumor/stomach (Mouse 1): 43
  Ratio tumor/stomach (Mouse 2): 131
Human CLDN18.2 [2]
  % of positive tumor cells (Average): 30%
  % of positive tumor cells (Mouse 1): 43%
  % of positive tumor cells (Mouse 2): 17%
Human CLDN18.2 [3]
  EC50: 0.572 µg/mL
  Max MFI: 1860 MFI
Human CLDN18.2 [4]
  EC50: 1.98 µg/mL
  Max MFI: 1720 MFI

B11: cCl1-1 (antibody, V domains shown)
VH: QIQLVQSGPELKKPGESVKISCKASGYTFTDYAMHWVKQAPGKGLKWMGWINTYTGKPTYADDFKGRFVFSLEASASTANLQISNLKNEDTATYFCARAVFYGYTMDAWGQGTSVTVSS
VL: DIQMTQSPASLSASLGETISIACRASEDIYSNLAWYQQKSGKSPQLLIFSVKRLQDGVPSRFSGSGSGTQYSLKISGMQPEDEGDYFCLQGSNFPLTFGSGTKLEIK
notes: Chimeric antibody from a rat hybridoma; not built in; also called chimeric cCl1-1 antibody
Human CLDN18.2 [1]
  Ratio tumor/stomach (Average): 74.3
  Ratio tumor/stomach (Mouse 1): 92.5
  Ratio tumor/stomach (Mouse 2): 50
Human CLDN18.2 [2]
  % of positive tumor cells (Average): 26%
  % of positive tumor cells (Mouse 1): 37%
  % of positive tumor cells (Mouse 2): 15%
